According to patent publication US20230037815A1:

Target: human CD19 on KILR Raji cells (UniProt P15391)
Assay: cell-based or functional assay

Chain of human CD19 on KILR Raji cells (P15391 20-556 limits assumed): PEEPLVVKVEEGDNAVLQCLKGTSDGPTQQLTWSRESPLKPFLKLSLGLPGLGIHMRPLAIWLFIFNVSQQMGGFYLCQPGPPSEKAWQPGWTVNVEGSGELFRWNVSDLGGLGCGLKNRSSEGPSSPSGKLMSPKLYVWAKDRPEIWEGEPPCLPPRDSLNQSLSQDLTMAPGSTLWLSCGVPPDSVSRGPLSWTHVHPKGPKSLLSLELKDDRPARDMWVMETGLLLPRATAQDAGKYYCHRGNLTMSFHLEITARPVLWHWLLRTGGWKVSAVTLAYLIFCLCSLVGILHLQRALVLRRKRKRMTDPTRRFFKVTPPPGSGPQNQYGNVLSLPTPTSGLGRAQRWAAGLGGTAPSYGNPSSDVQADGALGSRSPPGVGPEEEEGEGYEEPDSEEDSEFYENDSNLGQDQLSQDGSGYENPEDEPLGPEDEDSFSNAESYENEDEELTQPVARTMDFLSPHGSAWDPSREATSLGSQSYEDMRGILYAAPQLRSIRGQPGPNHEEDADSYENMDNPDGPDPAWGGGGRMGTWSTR

blinatumomab (bispecific antibody)
EC50 (pg/mL) of T cell-redirected killing of KILR Raji cells, +HSA: 10800 pg/mL | EC50 (pg/mL) of T cell-redirected killing of KILR Raji cells, -HSA: 2850 pg/mL
